Assay results published in article PMC6597583.

Assays:
[1] = molecular target: AtCYP19-3 (Arabidopsis thaliana)
[2] = molecular target: BnCYP19-1 (Brassica napus)
[3] = molecular target: BnCYP18-5 (Brassica napus)
[4] = molecular target: BnCYP18-4 (Brassica napus)

Q: How did the IC50 of CsA for inhibition of PPIase activity (protease-coupled assay, substrate Suc-AAPF-pNA, 5 nM protein, 0 to 1000 nM CsA, 4 °C) [1] turn out when cyclosporin A (peptide) was run?
A: 20.4 nM

Q: And the IC50 of CsA for inhibition of PPIase activity (protease-coupled assay, substrate Suc-AAPF-pNA, 5 nM protein, 0 to 1000 nM CsA, 4 °C) [2]?
A: 16.6 nM

Q: What about the IC50 of CsA for inhibition of PPIase activity (protease-coupled assay, substrate Suc-AAPF-pNA, 5 nM protein, 0 to 1000 nM CsA, 4 °C) [3] of the same substance?
A: 22.4 nM

Q: What about the IC50 of CsA for inhibition of PPIase activity (protease-coupled assay, substrate Suc-AAPF-pNA, 5 nM protein, 0 to 1000 nM CsA, 4 °C) [4] of the same substance?
A: 14.2 nM
